From patent US20130336885A1 (Genentech, published 2013) come the findings set out here.

In experiment [1] the target is T1, gD epitope-tagged LgR5 22-323 (amino acids 22-323 of SEQ ID NO: 67) with a C-terminal GPI anchor on … (human, UniProt O75473 22-323, C-terminal GPI anchor).
T1 sequence: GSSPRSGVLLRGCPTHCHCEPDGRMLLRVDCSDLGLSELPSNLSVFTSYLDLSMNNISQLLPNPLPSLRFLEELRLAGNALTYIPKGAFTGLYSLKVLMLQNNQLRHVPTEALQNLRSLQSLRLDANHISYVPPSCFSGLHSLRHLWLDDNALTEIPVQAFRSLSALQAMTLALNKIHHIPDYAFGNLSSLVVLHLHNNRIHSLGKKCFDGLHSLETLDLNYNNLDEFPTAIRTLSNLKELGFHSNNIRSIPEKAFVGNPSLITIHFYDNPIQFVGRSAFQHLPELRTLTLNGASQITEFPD
Briefly: FACS on transiently transfected 293 cells.

Experiment [2] deals with T2, gD epitope-tagged LgR5 22-123 (amino acids 22-123 of SEQ ID NO: 67) with a C-terminal GPI anchor on … (human, UniProt O75473 22-123, C-terminal GPI anchor).
T2 sequence: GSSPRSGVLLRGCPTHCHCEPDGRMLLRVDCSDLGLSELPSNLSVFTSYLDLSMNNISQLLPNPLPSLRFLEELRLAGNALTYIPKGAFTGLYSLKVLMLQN
The experiment is described as follows: FACS on transiently transfected 293 cells.

The target in experiment [3] is T3, gD epitope-tagged LgR5 424-907 (amino acids 424-907 of SEQ ID NO: 67) on transiently transfected 293 cells (human, UniProt O75473 424-907).
T3 sequence: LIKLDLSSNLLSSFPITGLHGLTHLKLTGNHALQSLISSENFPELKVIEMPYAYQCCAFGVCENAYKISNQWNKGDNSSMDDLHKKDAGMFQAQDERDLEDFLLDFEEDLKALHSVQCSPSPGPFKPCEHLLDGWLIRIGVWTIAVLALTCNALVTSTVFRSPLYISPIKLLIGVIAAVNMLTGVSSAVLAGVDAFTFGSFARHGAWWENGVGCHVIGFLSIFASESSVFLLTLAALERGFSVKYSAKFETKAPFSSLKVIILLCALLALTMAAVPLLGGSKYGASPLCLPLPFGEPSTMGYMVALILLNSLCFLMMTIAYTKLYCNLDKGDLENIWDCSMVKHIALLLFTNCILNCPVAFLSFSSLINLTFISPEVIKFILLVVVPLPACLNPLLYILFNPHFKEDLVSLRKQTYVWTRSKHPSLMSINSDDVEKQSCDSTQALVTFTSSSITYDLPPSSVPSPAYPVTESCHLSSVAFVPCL
The experiment is described as follows: FACS on transiently transfected 293 cells.

Experiment [4] has as its target T4, gD epitope-tagged mouse LgR5 expressed on stably transfected 293 cells (mouse, UniProt Q9Z1P4 22-907).
T4 construct: also called gD-tagged mouse LgR5
T4 sequence: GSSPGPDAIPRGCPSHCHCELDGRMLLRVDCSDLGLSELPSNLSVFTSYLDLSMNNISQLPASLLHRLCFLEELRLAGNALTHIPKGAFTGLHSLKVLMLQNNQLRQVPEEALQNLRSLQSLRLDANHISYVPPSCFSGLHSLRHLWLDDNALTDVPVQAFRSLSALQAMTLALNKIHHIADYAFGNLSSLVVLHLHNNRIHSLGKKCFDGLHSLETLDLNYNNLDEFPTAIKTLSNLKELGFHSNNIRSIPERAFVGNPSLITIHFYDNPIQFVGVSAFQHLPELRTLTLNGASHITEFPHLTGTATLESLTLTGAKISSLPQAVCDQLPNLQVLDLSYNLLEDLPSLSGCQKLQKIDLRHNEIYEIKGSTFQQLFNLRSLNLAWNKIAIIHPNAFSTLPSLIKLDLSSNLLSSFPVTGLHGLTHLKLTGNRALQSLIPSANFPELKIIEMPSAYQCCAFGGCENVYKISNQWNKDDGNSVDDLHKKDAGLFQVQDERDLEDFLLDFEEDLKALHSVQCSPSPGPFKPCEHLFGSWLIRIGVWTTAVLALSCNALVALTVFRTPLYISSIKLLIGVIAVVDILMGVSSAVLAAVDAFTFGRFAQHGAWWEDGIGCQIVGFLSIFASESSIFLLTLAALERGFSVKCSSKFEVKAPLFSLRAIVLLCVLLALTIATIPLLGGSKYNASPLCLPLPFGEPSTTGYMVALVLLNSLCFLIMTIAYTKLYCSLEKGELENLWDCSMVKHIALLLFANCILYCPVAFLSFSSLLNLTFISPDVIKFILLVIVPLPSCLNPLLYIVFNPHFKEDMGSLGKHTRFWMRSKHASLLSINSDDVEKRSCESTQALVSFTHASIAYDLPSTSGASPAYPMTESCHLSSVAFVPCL
Briefly: FACS on 293 cells stably transfected with gD epitope-tagged LgR5, 10 ug/ml antibody, R-Phycoerythrin goat anti-human detection. The protocol:
Monoclonal antibodies were tested to determine if they cross-react with LgR5 from species other than human. […] Residues that are identical among all four species are indicated by asterisks (*). […] YW353 antibody binds human and cynomolgus monkey LgR5, but not rat or mouse LgR5. Ch8E11 and hu8E11.v2 antibodies bind all four species of LgR5, although binding to rat LgR5 is not as strong as binding to human, cynomolgus monkey, or mouse LgR5. 2H6 antibody binds to human and mouse LgR5, and was not tested for binding to cynomolgus monkey or rat LgR5.

Experiment [5] has as its target T5, human LgR5 ECD (amino acids 22-557 fused to His-Fc expressed in a baculovirus system, or amino acids 22-558 … (human, UniProt O75473 22-557)).
T5 construct: not shown: C-terminal His-tagged Fc
T5 sequence: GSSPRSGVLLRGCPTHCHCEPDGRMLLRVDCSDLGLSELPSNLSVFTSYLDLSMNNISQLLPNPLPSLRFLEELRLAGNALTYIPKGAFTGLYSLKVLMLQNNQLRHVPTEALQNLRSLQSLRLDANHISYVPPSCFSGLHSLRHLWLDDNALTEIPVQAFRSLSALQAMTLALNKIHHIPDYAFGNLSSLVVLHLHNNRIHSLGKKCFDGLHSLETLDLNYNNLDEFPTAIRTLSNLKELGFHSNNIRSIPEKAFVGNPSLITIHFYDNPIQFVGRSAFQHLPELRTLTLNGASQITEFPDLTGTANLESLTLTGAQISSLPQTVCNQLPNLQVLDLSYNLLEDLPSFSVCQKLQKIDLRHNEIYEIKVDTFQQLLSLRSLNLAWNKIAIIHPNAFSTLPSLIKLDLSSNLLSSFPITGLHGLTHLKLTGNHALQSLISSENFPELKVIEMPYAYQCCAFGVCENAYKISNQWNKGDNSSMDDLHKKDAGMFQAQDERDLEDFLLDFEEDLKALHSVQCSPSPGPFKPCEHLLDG
The experiment is described as follows: SPR (BIAcore-3000), antibody captured by anti-human Fc, LgR5 ECD-Fc injected. For orientation: In SPR one partner is held on a chip, and binding of the other changes the refractive index at the surface.

B1: monoclonal antibody 3G12 (antibody, V domains shown)
VH: QVQLQQPGAEMVKPGASVKLSCKASVDTFNSYWMHWVKQRPGQGLEWIGEINPSNGRTNYIEKFKNRATVTVDKSSSTAFMQLSSLTSEDSAVYYCATGWYFDVWGAGTTVTVSS
VL: DVVMTQTPLSLPVSLGDQASISCRSSQSLVHSNGNTYLQWYLQKPGQSPKLLIYKVSNRFSGVPDRFSGSGSGTDFTLKISRVEAEDLGIYFCSQSTHFPYTFGGGTKLEIKR
notes: The variable domains are the same in both forms; also called m3G12; mu3G12
Regarding B1, the binding result in experiment [1] is listed as “no binding (tested: 10 µg/ml)”; in experiment [2], “no binding (tested: 10 µg/ml)”; in experiment [3], “no binding (tested: 10 µg/ml)”; in experiment [4], “binds”. Besides, in experiment [5], binding was characterised by a dissociation constant (Kd) of 72 nM.

B2: monoclonal antibody 2H6 (antibody, V domains shown)
VH: EVQLQQSGPELVKPGTSMKISCKASGYSFTGYTMNWVKQSHKNGLEWIGLINCYNGGTNYNQKFKGKATLTVDKSSSTAFMELLSLTSEDSAVYYCARGGSTMITPRFAYWGQGTLVTVSS
VL: DIVMTQSPSSLTVTAGEKVTMSCKSSQSLLNSGNQKNYLTWFQQKPGQPPKLLIYWASTRESGVPDRFTGSGSGTDFTLTISNVQAEDLAVYYCQNDYSFPFTFGQGTKVEIKR
notes: The variable domains are the same in both forms; also called m2H6; mu2H6
Regarding B2, the binding result in experiment [1] is listed as “no binding (tested: 10 µg/ml)”; in experiment [2], “no binding (tested: 10 µg/ml)”; in experiment [3], “no binding (tested: 10 µg/ml)”; in experiment [4], “binds”. In addition, in experiment [5], the Kd (in general, the free concentration of one partner at which half of the binding sites on the other are occupied at equilibrium, for simple one-to-one binding) came out at 208 nM.
